From paper PMC11711466, “Reconstitution of human DNA licensing and the structural and functional analysis of key intermediates” come the findings set out here.

For one data set, the target named is hMCM2-7 (human, UniProt P49736;P25205;P33991;P33992;Q14566;P33993 1-904;1-808;1-863;1-734;1-821;1-719). Briefly: negative stain EM, in-solution loading; double hexamers; loaded by ORC1-5, ORC6, CDC6, CDT1deltaN, ATP; more than without ORC6; 25 mM HEPES-KOH pH 7.5, 250 mM KGlu, 1 mM DTT, 4 mM MgOAc, 0.1% Triton X-100, 1 mM ATP or ATPgS, 30 C; high-salt wash adds 300 mM NaCl; in-solution: HEPES-NaOH, 0.05% Triton X-100. Particulars: protein: recombinant; tags: N-terminal Twin-Strep MCM2; N-terminal 8xHis MCM4; chain copies: 2;2;2;2;2;2; blunt.

In another data set the target is hORC1-5;hCDC6 (human;human, UniProt Q13415;Q13416;Q9UBD5;O43929;O43913;Q99741 1-861;1-577;1-711;1-436;1-435;1-560, |). Briefly: pull-down via Strep-hORC1; CDC6 retained with ORC1-5 only with DNA; 25 mM HEPES-KOH pH 7.5, 250 mM KGlu, 1 mM DTT, 4 mM MgOAc, 0.1% Triton X-100, 1 mM ATP or ATPgS, 30 C; high-salt wash adds 300 mM NaCl; in-solution: HEPES-NaOH, 0.05% Triton X-100. Particulars: protein: recombinant;recombinant; tags: N-terminal Twin-Strep on ORC1 (removed with SUMOstar protease in some preps);GST, cleaved; copies: 1;1;1;1;1;1; blunt.

B1: 158 bp lamin B2 (dsDNA)
DNA 1: GCCTGCCGCGCATGCGCACGAGGCACCCGGCGCGTCTATACAGCGTGTTGCCGCCGGGGCGGAGCCCGGTCGCATCACGTGACGAAGAGTCAGCTTGTGCAACAGCGTCGGAGGCTCACTAGAAAAAAAAGGGCAGGGTCCCATGCATCGCCTGGGTC
DNA 2: GACCCAGGCGATGCATGGGACCCTGCCCTTTTTTTTCTAGTGAGCCTCCGACGCTGTTGCACAAGCTGACTCTTCGTCACGTGATGCGACCGGGCTCCGCCCCGGCGGCAACACGCTGTATAGACGCGCCGGGTGCCTCGTGCGCATGCGCGGCAGGC
With B1, in the data set with hMCM2-7, the binding result is listed as “binds”.

B2: 90 bp ARS1 (dsDNA)
DNA 1: GTTATTTTACAGATTTTATGTTTAGATCTTTTATGCTTGCTTTTCAAAAGGCCTGCAGGCAAGTGCACAAACAATACTTAAATAAATACTA
DNA 2: TAGTATTTATTTAAGTATTGTTTGTGCACTTGCCTGCAGGCCTTTTGAAAAGCAAGCATAAAAGATCTAAACATAAAATCTGTAAAATAAC
In the case of B2, the binding result with hORC1-5;hCDC6 is “binds”.
